Experimental data as given in the RNAGym collection of RNA variant scans (doi:10.1021/acssynbio.7b00057).

B1: Pistol ribozyme (parent)
chain: GGGUCGUUGUUCCAUAAUCGCGUGGAUAUGGCACGCAAGUUUCUACCGGGCACCGUAAAUGUCCGACUGGAGCCGUUCGGGCGGCUAUAAACAGACCUCAGGCCCGAAGCGUGGCGGCACCUGCCGCCGGUGGUAAAAAAGAUCGGAAGAGCACACGUCU

Variants of: B1
Test: aptazyme ON/OFF ratio, guanine; higher = stronger switching; co-transcriptional cleavage with and without guanine

Row | Variant | aptazyme ON/OFF ratio
1 | U7C U8G G9A U10C U11G C12U C13U | 1.28
2 | U7C U8C G9A U10A U11C C12G C13A | 1.4
3 | U7G U8C U10C C12G C13A | 1.2
4 | U8G G9A U10G U11C C13U | 1.05
5 | U8C G9C C13G | 1.06
6 | U8C G9C U10C C12A C13G | 1.08
7 | U7C U8C G9U C12A C13A | 1.05
8 | U7C U8G G9A U11A C12G | 1.11
9 | U7G U8A G9A U10A C12U C13G | 1.07
10 | U7C U8G G9C U10G C12A C13A | 1.16
11 | U8A U10C U11G C12G C13U | 1.14
12 | U8G U11C | 2.46
13 | U7C G9A U10A C12U C13G | 1.2
14 | G9C U10A U11C C12U | 1.13
15 | U7C G9U U11G C12U C13G | 1.11
16 | U7A U8G G9C U10G U11G C12U C13G | 1.18
17 | U7A U8C G9C U10C U11C C12A C13A | 0.998
18 | U7G U8C G9C U10G U11G C12G C13G | 1.08
19 | U7C U8G U10C U11C C13A | 1.03
20 | U7C U8A G9U U10G U11C C13G | 1.07
21 | U8C U10G U11G C13A | 1.25
22 | G9C U10C U11G C13U | 1.08
23 | U7C U8A G9U U10A U11A C12G C13U | 1.28
24 | U7A G9A U10A U11A C13U | 1.21

Row | Variant | aptazyme ON/OFF ratio
25 | U7A G9U U10G C12U C13G | 1.23
26 | U7A U8C G9A U11A C12U C13A | 1.25
27 | U7A G9C U11G C12A C13A | 1.1
28 | G9A U10G U11A C12A | 1.17
29 | U7G U8A G9A U10G U11G C12A C13G | 1.14
30 | U8A G9C U10A U11C C12G C13G | 1.09
31 | U7C U8G G9A U11G C12G C13A | 1.16
32 | U8A G9A U11C C12G C13U | 1.22
33 | U7G G9U U10G U11C C12A C13U | 1.33
34 | U8A G9C U10C U11G C12U | 1.08
35 | U7G U8A G9A U10G C13A | 1.08
36 | U7G U8C G9A U10G U11G C12A C13A | 1.13
37 | U8C G9U U10A U11A C12A C13U | 1.33
38 | U7G G9U U10G C12A C13A | 1.12
39 | G9U U10A U11C C12U | 1.79
40 | U7C U8C G9C U10G | 1.61
41 | U7G U8C G9U U11G C13G | 1.05
42 | U7G U8A G9U C13A | 1.08
43 | U7C U8C G9A U11A C12U C13G | 1.25
44 | U8A U11C C12G | 1.51
45 | U7C U8C U10A U11A C13U | 1.29
46 | U7A U8C G9A C12A | 1.22
47 | U7A U8C U11C C12U C13A | 1.28
48 | U7C U8A U10A U11C C12U | 1.01

Row | Variant | aptazyme ON/OFF ratio
49 | U7G U8G U11A C12G C13U | 1.33
50 | U8A G9A U11G C13A | 1.13
51 | U7G U8C G9A U10A U11G C12A C13U | 1.09
52 | U7A U8A U10C U11C C12U C13G | 1.15
53 | U7A U8A U11A C12A C13G | 1.28
54 | U7G G9A U10C U11G C12G C13G | 1.06
55 | U7C U8C U10C U11G | 1.23
56 | U7G U8A U11C C12G C13A | 1.22
57 | U7G U8C G9C U10C C12U | 1.16
58 | U7A U8A G9C U11C C12U C13A | 1.13
59 | U7A G9A U10G U11A C13G | 1.03
60 | U7G U8A G9A U10A U11G C12A C13U | 1.07
61 | U7G U8C G9U U10G C12U C13U | 1.34
62 | U7A G9U | 1.86
63 | U7G U8G G9A U10G U11A C12U C13U | 1.07
64 | U7G U8C G9C U10A U11A C12G | 1.19
65 | U7C U8G G9A U11G C13A | 1.21
66 | U7C U8G G9A | 1.12
67 | U7G U8C G9C U10G U11C C12U C13A | 1.26
68 | U7A U8A G9A U10G U11G C12U C13G | 1.31
69 | U7G U10A U11C C12U | 1.05
70 | U7C U10G U11A C12U C13G | 1.1
71 | U7A U8A U10G U11C C13A | 1.17
72 | U7G U8C G9C U10G U11C C12G C13U | 1.19

Row | Variant | aptazyme ON/OFF ratio
73 | U7C U8G U10A U11G C12A C13G | 1.13
74 | U8G G9U U10G U11C | 1.02
75 | U7G U8G G9C U10A C12A C13A | 1.03
76 | U7G G9C U10C U11A | 1.65
77 | U7G U8A G9U U10C C12U C13G | 1.04
78 | U7G U8G G9A U10A U11A C13G | 1.14
79 | U7A U8G G9A U10C U11C C12U | 1.08
80 | U7G U8C G9U U10G U11C C12U | 1.26
81 | U7G U8G G9A U10C U11G C12G C13G | 1.14
82 | U7G U10A U11C C13G | 1.02
83 | U7C U8G G9A U11G C12U C13G | 1.29
84 | U8A G9C U10C U11A C13A | 1.16
85 | U7A U8G G9U U10G U11G C12U C13A | 1.38
86 | U8G G9C U10C U11C C12A | 1.05
87 | U8A U10A U11C C12G C13U | 1.16
88 | U8A G9C U11A C12A C13U | 1.21
89 | U7A U8G U10G U11A C12U | 1.33
90 | U7C U8C G9A U11A C12A C13A | 1.43
91 | U8G G9C U10G U11C C13G | 1.02
92 | U7A G9A U10G U11G C13A | 1.25
93 | U8C G9A U11G C12U C13U | 1.22
94 | U7C U8G G9C U11C C12U | 1.33
95 | U7G U8C G9U U10G U11C C12A | 2.33
96 | U8A G9A U11A C12A C13A | 1.3

Row | Variant | aptazyme ON/OFF ratio
97 | U7G U8A U10C U11A C12G C13A | 1.25
98 | U7G U10A U11C C12U C13A | 1.12
99 | U7G U8G G9U U11A C12U | 1.54
100 | U7A U8G G9A U11G C12G C13U | 1.52
101 | G9C U10G U11A C12G | 1.27
102 | U7G U8G G9A U10A U11C C13G | 1.06
103 | U7G G9C U10A U11A | 2.95
104 | U7A U8G G9A U10A U11A C12U C13A | 1.2
105 | U7C U8A G9A U10G U11C C12U C13G | 1.14
106 | U7G G9U C12U C13G | 1.31
107 | U7G U8A U10A U11A C12G | 1.14
108 | U8G G9A U11G C13G | 1.05
109 | U7C U8G G9A U10A C12A C13G | 1.1
110 | U7C U8G G9A U10G U11G C12U C13G | 1.25
111 | U7A U8A G9C U10A U11C C12G C13G | 1.14
112 | U7C U11G C12U | 1.26
113 | U7C U8A G9U U10A U11G C12G C13G | 1.26
114 | U7G G9A U11G C12G C13A | 1.07
115 | U7A U8C G9A U11C C12U | 1.14
116 | U7G U8A G9A U10C U11G C13U | 1.09
117 | U7G U8A G9C U10A U11A C12U C13U | 1.05
118 | U7C U8G G9U U10G U11G C12U C13U | 1.26
119 | G9C U10G U11A C13U | 1.05
120 | U7G U8G U10C U11C C13A | 1.07

Row | Variant | aptazyme ON/OFF ratio
121 | U8G G9A U10A C12U C13U | 1.29
122 | U7G G9U U10G U11A C12G C13U | 1.18
123 | U7G U8C U11G C12U C13U | 1.22
124 | U7A U8A G9A U10A C12A C13U | 1.09
125 | G9C C12A C13G | 1.1
126 | U7G U8C U10G U11A C12G C13G | 1.21
127 | U7G U8C G9U U10A U11G C12A | 1.12
128 | U7A U8G G9C U10A U11A C12A | 1.5
129 | U8G G9C U10C U11G C12A C13G | 1.05
130 | U7G G9C U10A C12A C13A | 1.2
131 | U7C G9C U10G C12G C13U | 1.1
132 | U8A G9C C12A C13A | 1.24
133 | U7A U8A U10A C12U C13U | 1.2
134 | U7G U8C G9C U11G C12U C13G | 1.33
135 | U8A G9U U10A C12G C13U | 1.33
136 | U8G G9A U10C U11C C12A C13U | 1.07
137 | U7C U8G G9U U10G U11G | 1.18
138 | U7C U8C G9U U10C U11C C12U | 1.23
139 | U8C G9U U10G U11A C13U | 1.14
140 | U7C U8C G9U U11C C12U C13A | 1.03
141 | U7C U8G G9U U10A U11A C13A | 1.19
142 | U7A G9U U10A U11A C12U C13G | 1.15
143 | U7G U8A G9C U11G C12G C13U | 1.03
144 | U7G U8G G9C U11C C13G | 1.4

Row | Variant | aptazyme ON/OFF ratio
145 | U7C U10A U11G C13G | 1.17
146 | U8A G9U U10G U11C C12U C13A | 1.04
147 | U7G U8G G9U U10A C12G | 1.21
148 | U7G U8G G9U U10A U11A C12A C13A | 1.02
149 | U7G U8A U10C U11C C13A | 1.05
150 | U7C U8A G9U U11G C12U C13A | 1.22
151 | U7A U8A G9U U10A U11A C13A | 1.23
152 | U7C U8A G9C U10A U11A C13G | 1.15
153 | U7A U8G G9A U10A U11A C12U C13G | 1.29
154 | U7C G9A U10C U11G C13G | 1.22
155 | U8C G9U U10A U11A C12U C13G | 1.2
156 | U7C U8G G9C U10C C12U C13U | 1.09
157 | U7G U8G G9A U10C U11C C13U | 1.01
158 | U7C U8A G9C U11A C12G C13U | 1.14
159 | G9U U10G C13A | 1.52
160 | U8A U10A C12A | 1.11
161 | U7A U8G G9C U10G C12A C13G | 1.1
162 | U7C U8C U10A U11C C12G C13G | 1.22
163 | U7G U8A G9U U10C C12A C13G | 1.12
164 | U7G U8G G9A U11A C12U C13U | 1.22
165 | U7A U11C C12U C13U | 1.38
166 | U8C U10A U11C C12U C13A | 1.06
167 | U7C U8G U10C U11C C12A C13U | 1.15
